According to PMC10901774 (2024):
Where no end group is shown, it is not given here. [ ]: non-standard residue; d: D form.

B4: recombinant CHIP (C-terminus of Hsc70-interacting protein) TPR domain (domain or fragment)
chain: GASPSAQELKEQGNRLFVGRKYPEAAACYGRAITRNPLVAVYYTNRALCYLKMQQHEQALADCRRALELDGQSVKAHFFLGQCQLEMESYDEAIANLQRAYSLAKEQRLNFGDDIPSALRIAKKKRWNSIEERR
modifications: biotinylated in the TR-FRET assay

Experiments:
[1] = target: B4; experiment: FP
[2] = target: p53-derived model peptide, FAM-labelled (L-form) (UniProt P04637, 5(6)-carboxyfluorescein (FAM)); experiment: FRET
Chain of p53-derived model peptide, FAM-labelled (L-form) (P04637 whole entry, looked up, tested part not stated): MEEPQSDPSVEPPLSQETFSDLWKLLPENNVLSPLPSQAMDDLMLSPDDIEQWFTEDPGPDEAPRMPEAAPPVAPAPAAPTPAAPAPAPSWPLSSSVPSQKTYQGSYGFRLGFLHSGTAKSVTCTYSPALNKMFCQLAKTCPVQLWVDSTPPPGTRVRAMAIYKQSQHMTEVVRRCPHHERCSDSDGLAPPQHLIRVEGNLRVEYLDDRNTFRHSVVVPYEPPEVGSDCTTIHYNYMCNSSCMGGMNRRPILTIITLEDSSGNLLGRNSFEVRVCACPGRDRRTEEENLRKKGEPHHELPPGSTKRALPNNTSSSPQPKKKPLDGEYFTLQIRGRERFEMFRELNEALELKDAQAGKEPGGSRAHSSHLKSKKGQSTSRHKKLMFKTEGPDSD

[3] = target: FAM-Hsp70 peptide (peptide model of the heat shock protein 70 C-terminus), L-form (UniProt P0DMV8, 5(6)-carboxyfluorescein (FAM)); experiment: FRET
Chain of FAM-Hsp70 peptide (peptide model of the heat shock protein 70 C-terminus), L-form (P0DMV8 whole entry, looked up, tested part not stated): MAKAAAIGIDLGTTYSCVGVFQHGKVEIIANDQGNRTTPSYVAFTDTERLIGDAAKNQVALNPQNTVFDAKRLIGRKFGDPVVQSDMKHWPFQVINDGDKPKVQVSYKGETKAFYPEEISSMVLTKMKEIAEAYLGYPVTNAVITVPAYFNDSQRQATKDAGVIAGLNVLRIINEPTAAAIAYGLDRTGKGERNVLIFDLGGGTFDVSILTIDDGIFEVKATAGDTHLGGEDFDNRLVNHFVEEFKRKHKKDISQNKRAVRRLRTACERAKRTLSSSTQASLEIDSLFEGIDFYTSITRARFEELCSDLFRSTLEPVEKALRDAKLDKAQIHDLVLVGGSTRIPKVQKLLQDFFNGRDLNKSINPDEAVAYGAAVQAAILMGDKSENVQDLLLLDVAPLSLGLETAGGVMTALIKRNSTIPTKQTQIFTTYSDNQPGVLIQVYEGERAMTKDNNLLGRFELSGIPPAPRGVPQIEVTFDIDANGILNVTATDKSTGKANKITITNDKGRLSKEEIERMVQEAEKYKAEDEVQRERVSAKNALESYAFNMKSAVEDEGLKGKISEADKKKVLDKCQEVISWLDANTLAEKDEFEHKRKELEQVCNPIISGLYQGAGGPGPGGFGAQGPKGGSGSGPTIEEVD

[4] = target: FAM-Hsp70 peptide (peptide model of the heat shock protein 70 C-terminus), D-form (UniProt P0DMV8, all residues D-amino acids; 5(6)-carboxyfluorescein (FAM)); experiment: FRET
Chain of FAM-Hsp70 peptide (peptide model of the heat shock protein 70 C-terminus), D-form (P0DMV8 whole entry, looked up, tested part not stated): as above

[5] = target: p53-derived model peptide, FAM-labelled (D-form) (UniProt P04637, all residues D-amino acids; 5(6)-carboxyfluorescein (FAM)); experiment: FRET
Chain of p53-derived model peptide, FAM-labelled (D-form) (P04637 whole entry, looked up, tested part not stated): as the sequence (P04637 whole entry, looked up, tested part not stated) above

## [dP][dW][dW][dE][dC][dL][dS][dQ][dA][dD][dD][dC][dD][dF][dR] (staple (positions not given here)) [D-H202]
[1]
  IC50: 1230 nM

B1: recombinant MDM2 (mouse double minute 2 homolog) (domain or fragment)
chain: SQIPASEQETLVRPKPLLLKLLKSVGAQKDTYTMKEVLFYLGQYIMTKRLYDEKQQHIVYCSNDLLGDLFGVPSFSVKEHRKIYTMIYRNLVVVN
modifications: biotinylated in the TR-FRET assay
[2]
  Kd: 10 nM

B2: synthetic L-CHIP (TPR domain) (domain or fragment)
chain: SPSAQELKEQGNRLFVGRKYPEAAACYGRAITRNPLVAVYYTNRALCYLKMQQHEQALADCRRALELDGQSVKAHFFLGQCQLEMESYDEAIANLQRAYSLAKEQRLNFGDDIPSALRIAKKKRWNSIEERR
modifications: biotin at the N-terminus through a PEG12 linker
[3]
  Kd: 3800 nM

B3: synthetic D-CHIP (TPR domain) (domain or fragment)
chain: SPSAQELKEQGNRLFVGRKYPEAAACYGRAITRNPLVAVYYTNRALCYLKMQQHEQALADCRRALELDGQSVKAHFFLGQCQLEMESYDEAIANLQRAYSLAKEQRLNFGDDIPSALRIAKKKRWNSIEERR
modifications: all residues D-amino acids; biotin at the N-terminus through a PEG12 linker
[4]
  Kd: 3500 nM

## B4
[3]
  Kd: 4000 nM

B5: synthetic D-MDM2 (domain or fragment)
chain: SQIPASEQETLVRPKPLLLKLLKSVGAQKDTYTMKEVLFYLGQYIMTKRLYDEKQQHIVYCSNDLLGDLFGVPSFSVKEHRKIYTMIYRNLVVVN
modifications: all residues D-amino acids; biotin at the N-terminus through a PEG12 linker
[5]
  Kd: 13 nM
